The source of these data is patent publication US7109167.

In one test the target is VEGF receptors on HUVECs. As to the kind of experiment: competition of 125I-VEGF binding to HUVECs.
For test [1], the target named is endothelial cell receptor for TKPPR on human aortic endothelial cells (HAEC). As to the kind of experiment: competition on HAEC: free TKPPR 5 µM against 1% BRU-114 bubbles.
For test [2] the target is unchanged. Description: competition on HAEC: free TKPPR 50 µM against 5% BRU-114 bubbles.
The target is the same in test [3]. Description: competition on HAEC: free TKPPR 25 µM against 2% BRU-114 bubbles.
Test [4] shares this target. As to the kind of experiment: competition on HAEC: free TKPPR 10 µM against 1% BRU-114 bubbles.
The target is the same in test [5]. Description: competition on HAEC: free TKPPR 25 µM against 1% BRU-114 bubbles.
The target is the same in test [6]. Description: competition on HAEC: free TKPPR 50 µM against 1% BRU-114 bubbles.
Test [7] has the same target. Description: competition on HAEC: free TKPPR 100 µM against 5% BRU-114 bubbles.
Test [8] deals with receptor for TKPPR on rabbit aortic endothelial cells (RAEC). Description: competition on RAEC: free TKPPR 100 µM against 5% BRU-114 bubbles.
For test [9], the target named is endothelial cell receptor for TKPPR on human aortic endothelial cells (HAEC). As to the kind of experiment: competition on HAEC: free TKPPR 10 µM against 10% BRU-114 bubbles.
Test [10] has the same target. Description: competition on HAEC: free TKPPR 200 µM against 1% BRU-114 bubbles.
Test [11] has the same target. As to the kind of experiment: competition on HAEC: free TKPPR 200 µM against 5% BRU-114 bubbles.
Test [12] has the same target. Description: competition on HAEC: free TKPPR 50 µM against 10% BRU-114 bubbles.
For test [13] the target is unchanged. As to the kind of experiment: competition on HAEC: free TKPPR 100 µM against 1% BRU-114 bubbles.
Test [14] shares this target. As to the kind of experiment: competition on HAEC: free TKPPR 10 µM against 5% BRU-114 bubbles.
The target is the same in test [15]. As to the kind of experiment: competition on HAEC: free TKPPR 100 µM against 10% BRU-114 bubbles.
The target is the same in test [16]. As to the kind of experiment: competition on HAEC: free TKPPR 200 µM against 10% BRU-114 bubbles.
Test [17] has the same target. Description: competition on HAEC: free TKPPR 10 µM against TKPPR-beads, average n = 11.
Test [18] shares this target. As to the kind of experiment: competition on HAEC: free TKPPR 25 µM against TKPPR-beads, average n = 11.
The target is the same in test [19]. As to the kind of experiment: competition on HAEC: free TKPPR 50 µM against TKPPR-beads, average n = 11.
Test [20] has the same target. As to the kind of experiment: competition on HAEC: free TKPPR 100 µM against TKPPR-beads, average n = 11.
For test [21] the target is unchanged. As to the kind of experiment: competition on HAEC: free TKPPR 200 µM against TKPPR-beads, average n = 11.
The target is the same in test [22]. Description: competition on HAEC: free TKPPR 500 µM against TKPPR-beads, average n = 11.
Test [23] shares this target. Description: competition on HAEC: free TKPPR 10 µM against 1% BRU-114 bubbles, average of two.
For test [24] the target is unchanged. Description: competition on HAEC: free TKPPR 10 µM against 1% BRU-292 bubbles, average of two.
For test [25] the target is unchanged. Description: competition on HAEC: free TKPPR 25 µM against 1% BRU-114 bubbles, average of two.
For test [26] the target is unchanged. As to the kind of experiment: competition on HAEC: free TKPPR 25 µM against 1% BRU-292 bubbles, average of two.
Test [27] shares this target. Description: competition on HAEC: free TKPPR 50 µM against 1% BRU-114 bubbles, average of two.
For test [28] the target is unchanged. Description: competition on HAEC: free TKPPR 50 µM against 1% BRU-292 bubbles, average of two.
For test [29] the target is unchanged. Description: competition on HAEC: free TKPPR 2.5 µM against 1% BRU-114 bubbles, average of two.
For test [30] the target is unchanged. As to the kind of experiment: competition on HAEC: free TKPPR 2.5 µM against 1% BRU-292 bubbles, average of two.
For test [31] the target is unchanged. Description: competition on HAEC: free TKPPR (head: 10 µmol; text: 10 µM) against 1% BRU-114 bubbles.
Test [32] shares this target. Description: competition on HAEC: free TKPPR (head: 10 µmol; text: 10 µM) against 5% BRU-114 bubbles.
The target is the same in test [33]. Description: competition on HAEC: free TKPPR (head: 100 µmol; text: 100 µM) against 1% BRU-114 bubbles.
For test [34] the target is unchanged. Description: competition on HAEC: free TKPPR (head: 100 µmol; text: 100 µM) against 5% BRU-114 bubbles.
Test [35] has the same target. Description: competition on HAEC: tuftsin 5 µM against 1% BRU-114 bubbles.
For test [36] the target is unchanged. As to the kind of experiment: competition on HAEC: tuftsin 10 µM against 1% BRU-114 bubbles.
The target is the same in test [37]. Description: competition on HAEC: tuftsin 25 µM against 1% BRU-114 bubbles.
Test [38] has the same target. Description: competition on HAEC: tuftsin 50 µM against 1% BRU-114 bubbles.
For test [39] the target is unchanged. As to the kind of experiment: competition on HAEC: tuftsin 100 µM against 1% BRU-114 bubbles.
Test [40] shares this target. Description: beads perfused over HAEC in a parallel plate flow cell, 1.53 dynes/cm^2.
The target is the same in test [41]. Description: fluorescent beads on confluent HAEC, static, Experiment 1, image analysis.
For test [42] the target is unchanged. Description: competition on HAEC: BRU-306 50 µM against 2% BRU-114 bubbles.
For test [43] the target is unchanged. As to the kind of experiment: competition on HAEC: BRU-306 100 µM against 2% BRU-114 bubbles.
Test [44] has the same target. As to the kind of experiment: competition on HAEC: BRU-306 200 µM against 2% BRU-114 bubbles.
Test [45] has the same target. Description: competition on HAEC: BRU-305 50 µM against 2% BRU-114 bubbles.
Test [46] shares this target. As to the kind of experiment: competition on HAEC: BRU-305 100 µM against 2% BRU-114 bubbles.
The target is the same in test [47]. As to the kind of experiment: competition on HAEC: BRU-305 200 µM against 2% BRU-114 bubbles.

Positions of bridges follow the written chain, without caps; N, C: chain ends. No end group written: not given here.

The molecule TKPPR-OH [TKPPR (L-threonyl-L-lysyl-L-prolyl-L-prolyl-L-arginine), free monomeric peptide] had a 50% inhibitory concentration (IC50) with VEGF receptors on HUVECs of 250 µM. The Average % Inhibition was found to be 45.7% in test [1]; 79.6% in [4]; 82% in test [5]; 92.7% in [6]; 93.7% in test [13]. The Bubbles Bound turned out to be 790 bubbles in test [1]; 528 bubbles in [4]; 106 bubbles in test [5]; 56 bubbles in test [6]; 17 bubbles in test [13]; 96 bubbles in [31]. Also, the figures for the Bubbles Bound in [32], in test [33] and in test [34] were 865 bubbles, 5 bubbles and 62 bubbles, respectively. For the same molecule, the Bubbles Bound-5% in test [2] was 440 bubbles; in [7] it was 12 bubbles; in test [11] it was 13 bubbles; in [14], 1340 bubbles. Moreover, in test [3], the Bubbles Bound % was 16 % of control. The molecule also gave a % inhibition of bubble binding in test [4] of 82.7%. In addition, the Bubbles Bound-1% stood at 10 bubbles in [4], 5 bubbles in [6], 4 bubbles in test [10] and 4 bubbles in test [13]. In test [7], this molecule gave an HAEC bubbles bound of 58 bubbles. In test [8], this molecule returned an RAEC bubbles bound of 21 bubbles. For the same molecule, the Bubbles Bound-10% in [9] was determined as 1090 bubbles; in [12], 857 bubbles; in [15], 399 bubbles; in test [16], 66 bubbles. For the same molecule, the % more bubbles bound than without competitor in [14] came to 19%. Besides, the % Inhibition in [17] is 30.8%; in test [18] it was 50.7%; in [19], 50.5%; in test [20] it was 62%; in test [21] it was 72.2%; in test [22], 70.6%. Also, the Bubbles Bound-BRU-114 Formulation turned out to be 535 bubbles in test [23], 75 bubbles in test [25], 9 bubbles in test [27] and 1240 bubbles in [29]. The Bubbles Bound-BRU-292 Formulation in test [24] amounted to 833 bubbles; in test [26] it was 718 bubbles; in test [28], 462 bubbles; in [30] it was 888 bubbles.
For TKPR [Tuftsin (TKPR)], the Bubbles Bound in test [35] came out at 1150 bubbles; in test [36], 976 bubbles; in test [37] it was 1170 bubbles; in test [38], 904 bubbles; in [39], 556 bubbles.
As to TKPPR (also: coupled by EDAC to carboxylate-modified microspheres) [TKPPR-conjugated red fluorescent microspheres], in [40], the beads bound at 1.53 dynes/cm^2 is 86 beads. Moreover, in [41], the Integrated density of bound beads (arbitrary units) came to 230.
Turning to CTKPPRC-OH (disulfide 1-7 (inferred)) [Cyclic disulfide CTKPPRC (BRU-306)], the figures for the Bubbles Bound % in [42], in test [43] and in test [44] were 97 % of control, 71 % of control and 99 % of control, respectively.
As for GRGDSP (also: coupled by EDAC to carboxylate-modified microspheres) [GRGDSP-conjugated fluorescent microspheres], the Integrated density of bound beads (arbitrary units) in test [41] is 28.6.
As to CTKPPRC [Linear CTKPPRC (BRU-305)], the values for the Bubbles Bound % in test [45], in test [46] and in test [47] were 97 % of control, 78 % of control and 88 % of control, respectively.

B1: TKPPR tetramer BRU-326, OG-(TKPPR)4 (peptide)
peptide: TKPPR-OH
modifications: not fully specified (N-terminus); printed as OG-(TKPPR)4; also: tetramer: four TKPPR chains joined via branched tetra-acid scaffold
B1: the half-maximal inhibitory concentration (IC50) with VEGF receptors on HUVECs came to 10 µM.
